The values that follow come from publication doi:10.1101/2022.02.02.478833 (bioRxiv, 2022).

As usually defined, the Kd is the constant that tells how readily two partners part at equilibrium. A higher Kd goes with weaker binding. What is called koff is the rate constant with which the complex falls apart. The low end stands for slow dissociation, the high end for fast dissociation.

For test [1], the target named is human TANGO1 (21-131) cargo-recognition (MOTH) domain (human) (UniProt Q5JRA6). The experiment in a line: NMR titration.
For test [2], the target named is T1, MOTH domain of human Otoraplin (18-128) (human, UniProt Q9NRC9 18-128, [U-15N]-enriched).
T1 sequence (looked up): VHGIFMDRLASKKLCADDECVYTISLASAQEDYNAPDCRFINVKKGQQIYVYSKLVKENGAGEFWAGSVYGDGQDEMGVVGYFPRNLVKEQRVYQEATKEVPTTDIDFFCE
The experiment in a line: NMR titration.

In test [1], FHNYNVEELLGFLELYNSAA [synthetic peptide of residues 132 to 151 of human TANGO1] yielded a Kd of 321 µM and a dissociation rate constant (koff) of 1100 s⁻¹.
In test [2], VPPPVPPRRR (peptide, UniProt Q07889 1149-1158, looked up) [class II PPII helix peptide SOS1 (1149-1158)] gave a Kd of 1300 µM and a koff of 350000 s⁻¹.
